Experiments:
[1] = biological target: T1, BLMHM (BLM helicase module) (Homo sapiens, UniProt P54132 642-1290); assay: stopped-flow mdADP fluorescence amplitude titration
[2] = biological target: T1, BLMHM (BLM helicase module); assay: HEX fluorescence change
[3] = biological target: T1, BLMHM (BLM helicase module); assay: stopped-flow mdADP fluorescence amplitude titration; remark: listed apart in the source
[4] = biological target: T1, BLMHM (BLM helicase module); assay: fluorescence titration
[5] = biological target: T1, BLMHM (BLM helicase module); assay: stopped-flow mdADP fluorescence amplitude titration; remark: listed apart in the source

T1 sequence (P54132 642-1290): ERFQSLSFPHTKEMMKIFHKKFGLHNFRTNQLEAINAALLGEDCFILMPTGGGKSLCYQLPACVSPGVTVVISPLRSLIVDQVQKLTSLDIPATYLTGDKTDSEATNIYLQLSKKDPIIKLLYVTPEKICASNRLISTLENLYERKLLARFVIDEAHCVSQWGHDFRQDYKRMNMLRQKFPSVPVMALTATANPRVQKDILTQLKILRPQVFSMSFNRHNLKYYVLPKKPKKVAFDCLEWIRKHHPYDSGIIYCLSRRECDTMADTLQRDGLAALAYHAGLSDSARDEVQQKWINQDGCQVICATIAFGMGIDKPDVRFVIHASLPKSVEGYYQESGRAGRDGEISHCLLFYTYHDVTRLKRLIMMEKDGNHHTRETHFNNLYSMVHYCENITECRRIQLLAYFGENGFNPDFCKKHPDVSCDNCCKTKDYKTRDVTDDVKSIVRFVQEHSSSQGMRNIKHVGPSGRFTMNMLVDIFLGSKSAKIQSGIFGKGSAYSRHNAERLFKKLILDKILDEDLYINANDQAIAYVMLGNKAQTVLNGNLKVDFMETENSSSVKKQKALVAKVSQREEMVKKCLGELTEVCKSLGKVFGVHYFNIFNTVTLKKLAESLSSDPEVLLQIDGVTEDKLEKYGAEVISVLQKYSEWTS

B1: dT54 (ssDNA)
DNA: TTTTTTTTTTTTTTTTTTTTTTTTTTTTTTTTTTTTTTTTTTTTTTTTTTTTTT
B1 showed a Kd [1] of under 100 nM.

TTTTTTTTTTTTTTTTTTTT (ssDNA) [5'-HEX-dT20]: binds [2].

TTTTTTTTTTTTTTTTTT (ssDNA) [dT18] gave a Kd [3] of under 100 nM.

B2: DNA_2 (5'-HEX-DNA_54mer) (ssDNA)
DNA: CGTTGCGCAATTAAGCTCTAAGCCATCCGCAAAAATGACCTCTTATCAAAAGGA
Work on B2 yielded a Kd [4] of 100 ± 20 nM.

With TTTTTTTTTTTTTTTTTTTTTTTTTTTTTTTTTTTT (ssDNA) [dT36] the Kd [5] was under 100 nM.
